Laboratory results taken from patent US20040170955A1 (University of Texas, published 2004).
Ends that are not written are not given here.

Legend:
[1] = target: T1, Aminopeptidase A (APA, EC 3.4.11.7) on SK-RC-49/APA cells (UniProt Q07075 1-957, limits assumed); assay: phage binding to SK-RC-49/APA cells against parental cells (not shown)
T1 construct: whole, on cells

[2] = target: GST-β5cyto (GST fusion protein of the β5 integrin cytoplasmic domain) (UniProt P18084); assay: phage binding, colonies from β5-GST wells / GST wells
[3] = target: GST-β5cyto (GST fusion protein of the β5 integrin cytoplasmic domain) (UniProt P18084); assay: phage binding, colonies from β5-GST wells / BSA wells
[4] = target: GST-β5cyto (GST fusion protein of the β5 integrin cytoplasmic domain) (UniProt P18084); assay: phosphorylated phage binding, β5 colonies / BSA colonies
[5] = target: GST-β5cyto (GST fusion protein of the β5 integrin cytoplasmic domain) (UniProt P18084); assay: phosphorylated phage binding, β5 colonies / GST colonies
[6] = target: GST-β5cyto (GST fusion protein of the β5 integrin cytoplasmic domain) (UniProt P18084); assay: phage binding to β5, colonies with Fyn-phosphorylated phage / unphosphorylated phage
[7] = target: GST-β3cyto (GST fusion protein of the β3 integrin cytoplasmic domain) (UniProt P05106); assay: phage binding to β3, colonies with Fyn-phosphorylated phage / unphosphorylated phage
GST-β3cyto (GST fusion protein of the β3 integrin cytoplasmic domain) (UniProt P05106), sequence (P05106 742-788): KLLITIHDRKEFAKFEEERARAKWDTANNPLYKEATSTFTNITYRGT

[8] = target: GST-β3cyto (GST fusion protein of the β3 integrin cytoplasmic domain) (UniProt P05106); assay: phosphorylated phage binding, β3 colonies / GST colonies
[9] = target: GST-β3cyto (GST fusion protein of the β3 integrin cytoplasmic domain) (UniProt P05106); assay: phosphorylated phage binding, β3 colonies / BSA colonies
[10] = target: T1, Aminopeptidase A (APA, EC 3.4.11.7) on …; assay: cell-based or functional assay
[11] = target: GST-β3cyto (GST fusion protein of the β3 integrin cytoplasmic domain) (UniProt P05106); assay: phage binding, colonies from β3-GST wells / BSA wells
[12] = target: GST-β3cyto (GST fusion protein of the β3 integrin cytoplasmic domain) (UniProt P05106); assay: phage binding, colonies from β3-GST wells / GST wells
[13] = target: T2, GST-β3cyto (GST fusion protein of the β3 integrin cytoplasmic domain) (UniProt P05106 742-788); assay: phage binding to β3, colonies with Fyn-phosphorylated phage / unphosphorylated phage
T2 construct: domain: cytoplasmic domain; Recombinant GST fusion coated on microtiter wells; also called β3-GST; β3 cytoplasmic domain fusion protein; not shown: glutathione S-transferase (GST) fusion partner
T2 sequence (P05106 742-788): as above
Experimental: (§1) Phosphorylation of peptide libraries with src family protein kinases (Fyn, c-Src, Lyn, and Syc) and serine/threonine kinases such as a MAP kinase were performed as described previously (Schmitz et al., 1996; Dente et al., 1997; Gram et al., 1997). Briefly, phage particles were collected from culture supernatants by double precipitation with 20% polyethylene glycol 8000 in 2.5 M NaCl. Particles were dissolved at 10¹² particles/ml. Purified phage (10 μl) were incubated for 3 hours at room temperature with different concentrations (35 to 3,500 units) of protein kinases in a reaction buffer volume of 50 μl. The reaction mixtures were transferred to tubes containing 10 μg of agarose-conjugated anti-P-Tyr, anti-P-Ser, or anti-P-Thr monoclonal antibodies to select phage displaying phosphorylated peptides. Bound phage were eluted by washing the column with 0.3 ml of elution buffer (0.1 M NaCl/glycine/1 mg/ml BSA, pH 2.35). The eluates were neutralized with 2 M Tris-base and incubated with 2 ml of a mid-log bacteria culture.
(§2) Amino acid sequences of the phagemid encoded peptides were deduced from nucleotide sequences.

[14] = target: T2, GST-β3cyto (GST fusion protein of the …); assay: phosphorylated phage binding, β3 colonies / BSA colonies
Experimental: as §1, §2

[15] = target: T2, GST-β3cyto (GST fusion protein of the …); assay: phosphorylated phage binding, β3 colonies / GST colonies
Experimental: as §1, §2

[16] = target: T1, Aminopeptidase A (APA, EC 3.4.11.7) on …; assay: phage binding to SK-RC-49/APA cells against SK-RC-49 parental cells

T1 sequence (Q07075 whole entry): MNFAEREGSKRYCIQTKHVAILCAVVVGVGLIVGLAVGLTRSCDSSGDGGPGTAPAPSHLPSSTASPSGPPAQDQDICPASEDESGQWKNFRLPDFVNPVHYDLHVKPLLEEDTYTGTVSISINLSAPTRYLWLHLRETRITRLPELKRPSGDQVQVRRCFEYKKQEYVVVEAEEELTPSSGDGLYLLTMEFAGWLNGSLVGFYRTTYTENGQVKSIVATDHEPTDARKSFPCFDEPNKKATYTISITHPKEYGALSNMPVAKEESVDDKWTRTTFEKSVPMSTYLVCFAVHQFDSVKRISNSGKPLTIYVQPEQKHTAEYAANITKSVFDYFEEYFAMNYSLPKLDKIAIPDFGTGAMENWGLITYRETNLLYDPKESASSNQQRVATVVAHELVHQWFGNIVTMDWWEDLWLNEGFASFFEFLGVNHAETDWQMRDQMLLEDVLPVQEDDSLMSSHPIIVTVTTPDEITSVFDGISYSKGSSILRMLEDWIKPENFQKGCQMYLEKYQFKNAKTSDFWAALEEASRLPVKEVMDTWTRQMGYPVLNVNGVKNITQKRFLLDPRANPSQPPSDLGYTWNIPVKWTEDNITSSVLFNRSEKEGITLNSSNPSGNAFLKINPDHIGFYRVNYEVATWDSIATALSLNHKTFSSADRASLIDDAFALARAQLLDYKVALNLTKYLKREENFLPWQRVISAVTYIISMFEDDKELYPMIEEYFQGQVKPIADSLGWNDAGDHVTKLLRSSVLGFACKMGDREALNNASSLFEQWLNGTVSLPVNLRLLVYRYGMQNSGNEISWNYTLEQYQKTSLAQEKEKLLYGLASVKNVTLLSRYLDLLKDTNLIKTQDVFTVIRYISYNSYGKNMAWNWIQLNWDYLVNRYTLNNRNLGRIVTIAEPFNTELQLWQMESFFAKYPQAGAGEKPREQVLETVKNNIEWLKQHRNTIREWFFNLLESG

B1: phage displaying CYNLCIRECESICGADGACWTWCADGCSRSC (SEQ ID NO:125) (peptide)
peptide: CYNLCIRECESICGADGACWTWCADGCSRSC
notes: whole phage tested; also called tandem phage
fold enrichment relative to SK-RC-49 parental cells [1]: 6 fold

B2: phage displaying DWFSYYEL (SEQ ID NO:114) (peptide)
peptide: DWFSYYEL
β5/GST Ratio [2]: 1.7 | β5/BSA Ratio [3]: 153

B3: Fyn-phosphorylated phage displaying … (SEQ ID NO:120) (peptide)
peptide: TLRKYFHSS
modifications: not fully specified (residue 5); also: displayed on phage
β3 or β5/BSA [4]: 15.2 | β3 or β5/GST [5]: 3.8 | Phos/Unphos [6]: 3.8

B4: Fyn-phosphorylated phage displaying … (SEQ ID NO:115) (peptide)
peptide: GGGSYRHVE
modifications: not fully specified (residue 5); also: displayed on phage
Phos/Unphos [7]: 13.2 | β3 or β5/GST [8]: 1.5 | β3 or β5/BSA [9]: 5.3

B5: Fyn-phosphorylated phage displaying … (SEQ ID NO:117) (peptide)
peptide: MLLGYRFEK
modifications: not fully specified (residue 5); also: displayed on phage
Phos/Unphos [7]: 2.5 | β3 or β5/GST [8]: 3.5 | β3 or β5/BSA [9]: 2.7

B6: phage displaying … (SEQ ID NO:108) (peptide)
peptide: CKLWQEDGY
β5/GST Ratio [2]: 1.8 | β5/BSA Ratio [3]: 665

B7: CPRECESIC (SEQ ID NO:123) soluble cyclic peptide (peptide)
peptide: CPRECESIC
modifications: disulfide (positions not given here); not fully specified; also: disulfide positions not determined, mixture of six MS species, possibly dimers
IC50 for APA enzyme inhibition (α-glutamyl-p-nitroanilide, colorimetric, SK-RC49/APA cells) [10]: 800 µM

B8: phage displaying CPKVCPRECESNC (SEQ ID NO:127) (peptide)
peptide: CPKVCPRECESNC
notes: whole phage tested
fold enrichment relative to SK-RC-49 parental cells [1]: 6 fold

B9: phage displaying … (SEQ ID NO:101) (peptide)
peptide: AGWLYMSWK
β3/BSA Ratio [11]: 2.4 | β3/GST Ratio [12]: 1.8

B10: Fyn-phosphorylated phage displaying RAILYRLAN (SEQ ID NO:116) (peptide)
peptide: RAILYRLAN
modifications: not fully specified (residue 5); also: displayed on phage
notes: whole phage tested
Phos/Unphos [13]: 2.8 ratio | β3 or β5/BSA [14]: 20 ratio | β3 or β5/GST [15]: 1.3 ratio

B11: phage displaying CLGQCASICVNDC (SEQ ID NO:126) (peptide)
peptide: CLGQCASICVNDC
notes: whole phage tested
fold enrichment relative to SK-RC-49 parental cells [1]: 6 fold

B12: Fyn-phosphorylated phage displaying … (SEQ ID NO:118) (peptide)
peptide: TMLRYTVRL
modifications: not fully specified (residue 5); also: displayed on phage
β3 or β5/BSA [4]: 2.2 | β3 or β5/GST [5]: 3.4 | Phos/Unphos [6]: 14.3

B13: Fyn-phosphorylated phage displaying … (SEQ ID NO:119) (peptide)
peptide: TMLRYFMFP
modifications: not fully specified (residue 5); also: displayed on phage
β3 or β5/BSA [4]: 3.8 | β3 or β5/GST [5]: 2.3 | Phos/Unphos [6]: 4.2

B14: phage displaying CSMMCLEGCDDWC (SEQ ID NO:131) (peptide)
peptide: CSMMCLEGCDDWC
notes: one of the other phage selected in round 2
binding result [16]: no binding
